According to PMC7317531 (Chembiochem, 2020):

How the values were obtained:
SahH [1] = target: T1, SahH (Psilocybe cubensis, UniProt A0ACB8GS59); assay: inhibition of SAH hydrolysis; assay type: biochemical; settings: hydrolytic direction
T1 sequence (A0ACB8GS59 1-430): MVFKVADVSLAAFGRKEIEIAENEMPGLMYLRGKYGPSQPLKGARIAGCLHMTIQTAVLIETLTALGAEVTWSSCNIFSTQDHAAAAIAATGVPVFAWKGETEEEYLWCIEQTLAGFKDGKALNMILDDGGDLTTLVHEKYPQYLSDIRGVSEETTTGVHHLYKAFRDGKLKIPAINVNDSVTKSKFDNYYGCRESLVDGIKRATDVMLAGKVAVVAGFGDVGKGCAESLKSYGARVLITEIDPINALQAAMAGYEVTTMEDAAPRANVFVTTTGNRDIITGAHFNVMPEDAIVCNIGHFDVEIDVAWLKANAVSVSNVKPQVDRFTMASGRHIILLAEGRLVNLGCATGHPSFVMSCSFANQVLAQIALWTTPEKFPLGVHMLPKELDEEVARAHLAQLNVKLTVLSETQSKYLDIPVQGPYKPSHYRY

SahH [2] = target: T1, SahH; assay: Ellman's reagent; assay type: biochemical; settings: hydrolytic direction, 100 μM NAD+, pH 7.8, 34 °C
PsiM = PsiM (Psilocybe cubensis, UniProt P0DPA9); assay: UHPLC-MS quantification of baeocystin and psilocybin; assay type: biochemical; settings: 3 mM SAM, 1 mM norbaeocystin, 1 μM PsiM, pH 8.0, 25 °C; competitive
purified protein [3] = substrate: Nc1ncnc2c1ncn2[C@@H]1O[C@H](CO)[C@@H](O)[C@H]1O; assay: purified protein
purified protein [4] = substrate: Nc1ncnc2c1ncn2[C@@H]1O[C@H](COP(=O)(O)OP(=O)(O)OP(=O)(O)O)[C@@H](O)[C@H]1O; assay: purified protein; settings: adenosine co-substrate, 10 mM MgCl2, pH 7.8, 30 °C
purified protein [5] = substrate: N[C@@H](CCS)C(=O)O; assay: purified protein; settings: synthetic direction, co-substrate adenosine
[6] = ATP co-substrate, 10 mM MgCl2, pH 7.8, 30 °C
[7] = synthetic direction, co-substrate L-homocysteine

Molecule: Nc1ncnc2c1ncn2[C@@H]1O[C@H](CO)[C@@H](O)[C@H]1O [Ado]
- inhibition (SahH [1]; product inhibition): SAH hydrolysis is strongly inhibited by elevated Ado concentrations

Molecule: Nc1ncnc2[nH]cnc12 [Ade]
- inhibition (SahH [1]; tenfold excess over SAH): to a lower extent—by tenfold excess of Ade over the SAH substrate

Molecule: Nc1ncnc2c1ncn2[C@@H]1O[C@H](CSCC[C@H](N)C(=O)O)[C@@H](O)[C@H]1O [SAH]
- Km (SahH [2]): 57.2 µM
- inhibition at 1-16 mM (PsiM): SAH competitively inhibited PsiM′s activity in a concentration‐dependent manner

B1: AdoK (Psilocybe cubensis) (protein)
chain: MSAPSYSLFCMGNPLLDMQVRNGEQLLEKYGLKANDAILADEKQSEIYDELVKEHQVTYVAGGAAQNAARGAAYILPPGSVVYTGAVGDDELAEQLKAANKREGLDQVYQVKKGEKTGACAVVITGHHRSLVTTLRVAEKFEKSHLSSPEVAPLVENAKFFYIEGYFLTHGVESALELSSKASAAGKTFVMNLSAPFIAQFFGEQLNQILPHTDIIIGNEAEAEAWATAHNYASTTDLASIAKQIALLPKSNPARPRVVVFTHGAQSTVLVSADRPDEARVFAVDVLADDKIVDTNGAGDAFAGGFVGALVAGKDLEGAVLAGHALARQCVQQVGPQYPWPKVDIL
- Km (purified protein [3]; [6]): 33.6 µM
- kcat (purified protein [3]; [6]): 1400 s⁻¹
- kcat/Km (purified protein [3]; [6]): 4.2e+07 M⁻¹ s⁻¹
- Km (purified protein [4]): 11.6 µM
- kcat (purified protein [4]): 1400 s⁻¹
- kcat/Km (purified protein [4]): 1.2e+08 M⁻¹ s⁻¹

B2: SahH (Psilocybe cubensis) (protein)
chain: MVFKVADVSLAAFGRKEIEIAENEMPGLMYLRGKYGPSQPLKGARIAGCLHMTIQTAVLIETLTALGAEVTWSSCNIFSTQDHAAAAIAATGVPVFAWKGETEEEYLWCIEQTLAGFKDGKALNMILDDGGDLTTLVHEKYPQYLSDIRGVSEETTTGVHHLYKAFRDGKLKIPAINVNDSVTKSKFDNYYGCRESLVDGIKRATDVMLAGKVAVVAGFGDVGKGCAESLKSYGARVLITEIDPINALQAAMAGYEVTTMEDAAPRANVFVTTTGNRDIITGAHFNVMPEDAIVCNIGHFDVEIDVAWLKANAVSVSNVKPQVDRFTMASGRHIILLAEGRLVNLGCATGHPSFVMSCSFANQVLAQIALWTTPEKFPLGVHMLPKELDEEVARAHLAQLNVKLTVLSETQSKYLDIPVQGPYKPSHYRY
- Km (purified protein [5]): 19.8 µM
- kcat (purified protein [5]): 1.8 s⁻¹
- kcat/Km (purified protein [5]): 91000 M⁻¹ s⁻¹
- Km (purified protein [3]; [7]): 56.7 µM
- kcat (purified protein [3]; [7]): 1.8 s⁻¹
- kcat/Km (purified protein [3]; [7]): 31000 M⁻¹ s⁻¹
